Source: patent publication US20190367612A1 (Daiichi Sankyo, published 2019)
Bridge positions count the residues as written; N and C are the ends. Ends that are not written are not given here. * marks the point of attachment. Biotin = O=C1N[C@H]2[C@H](CS[C@H]2CCCCC(=O)*)N1

B2: human GPRC5D amino-terminal peptide MYKDCIESTGDYFLLCDAEGPWGIILE-K(Biotin)-NH2, having an intramolecular disulfide bond (peptide)
peptide: MYKDCIESTGDYFLLCDAEGPWGIILEK(Biotin)-NH2
modifications: disulfide 5-16 (inferred)
notes: Peptide Institute synthetic peptide; also called amino-terminal peptide of biotinylated human GPRC5D (disulfide bond present)

Tests used:
[1] = target: T1, cynomolgus monkey GPRC5D (cynomolgus monkey); assay: flow cytometry on KMS-11_cGPRC5D cells (cynomolgus monkey GPRC5D), PE anti-human IgG Fc detection, rMFI = MFI minus isotype control [label at the foot of D00092]
T1 construct: whole, on cells; Stably expressed on KMS-11 cells (KMS-11_cGPRC5D); also called cGPRC5D

[2] = target: T2, human GPRC5D (human, UniProt Q9NZD1 1-345); assay: flow cytometry on KHM-1B cells (human GPRC5D), culture supernatant, PE anti-human IgG Fc, rMFI over human IgG isotype control
T2 construct: whole, on cells; also called hGPRC5D; G-protein coupled receptor family C group 5 member D
Protocol: Human multiple myeloma cell line KHM-1B cells expressing GPRC5D were adjusted to a concentration of 2×10⁶ cells/mL with PBS containing 5% FBS, inoculated in an amount of 100 μL/well to a 96-well U-bottomed microplate, and centrifuged to remove a supernatant. The culture supernatant of each humanized anti-GPRC5D antibody obtained in Example 8)-3-1 or Human IgG isotype control antibody (Calbiochem/Merck Millipore Corp.) adjusted to 14 ng/mL to 30 μg/mL was added thereto in an amount of 100 μL/well, and the plate was left standing at 4° C. for 1 hour. The cells were washed twice with PBS containing 5% FBS. Then, R-Phycoerythrin AffiniPure F(ab′)2 Fragment Goat Anti-Human IgG, Fcγ Fragment Specific (Jackson ImmunoResearch Laboratories, Inc.) diluted 100-fold with PBS containing 5% FBS was added thereto in an amount of 100 μL/well, and the plate was left standing at 4° C. for 1 hour. The cells were washed twice with PBS containing 5% FBS and then resuspended in PBS containing 5% FBS, followed by detection using a flow cytometer (FACSCanto™ II; Becton, Dickinson and Company). The data was analyzed using Flowjo (Tree Star, Inc.). The PE fluorescence intensity of the cell fraction was plotted to a histogram, and the mean fluorescence intensity (MFI) was calculated. The MFI value of the control antibody was subtracted from the MFI value of the GPRC5D antibody to calculate a relative value of MFI (rMFI).

[3] = target: T3, rat anti-GPRC5D antibody 2A4; assay: flow cytometry competition on KMS-34 cells: the peptide with the intramolecular disulfide bond is added together with a fixed amount of 2A4; readout: binding of 2A4 to human GPRC5D on the cells
T3 construct: Rat IgG2b, kappa chain
T3 sequence (VH, as listed by the source, chain 1 of 2): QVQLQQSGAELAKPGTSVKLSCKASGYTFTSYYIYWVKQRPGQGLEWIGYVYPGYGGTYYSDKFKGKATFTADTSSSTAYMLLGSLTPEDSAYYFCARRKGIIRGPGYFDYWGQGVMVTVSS
T3 sequence (VL, as listed by the source, chain 2 of 2): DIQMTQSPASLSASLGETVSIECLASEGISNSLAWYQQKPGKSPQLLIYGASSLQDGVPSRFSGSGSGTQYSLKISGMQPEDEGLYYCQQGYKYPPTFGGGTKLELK
Protocol: (§1) Human multiple myeloma cell line KMS-34 cells expressing GPRC5D were adjusted to a concentration of 2×10⁶ cells/mL with PBS containing 5% FBS, inoculated in an amount of 100 μL/well to a 96-well U-bottomed microplate, and centrifuged to remove a supernatant. Each rat anti-GPRC5D antibody (2A4, 2B1, and 7B4) adjusted to 7.5 μg/mL in Example 1)-7, or Rat IgG2b isotype control antibody (Medical & Biological Laboratories Co., Ltd. (MBL)) was added thereto in an amount of 100 μL/well. The two types of peptides used in Example 2)-2-1 were each adjusted to 17 ng/mL to 34 μg/mL with PBS and added in an amount of 100 μL/well to the wells containing the antibody dilution, and the plate was left standing at 4° C. for 1 hour. The cells were washed twice with PBS containing 5% FBS. Then, PE Goat Anti-Rat Ab (Becton, Dickinson and Company) diluted 100-fold with PBS containing 5% FBS was added thereto in an amount of 100 μL/well, and the plate was left standing at 4° C. for 1 hour. The cells were washed twice with PBS containing 5% FBS and then resuspended in PBS containing 5% FBS, followed by detection using a flow cytometer (FACSCanto™ II; Becton, Dickinson and Company). The data was analyzed using Flowjo (Tree Star, Inc.). The PE fluorescence intensity of the cell fraction was plotted to a histogram, and the mean fluorescence intensity (MFI) was calculated. […]

[4] = target: T4, rat anti-GPRC5D antibody 7B4; assay: flow cytometry competition on KMS-34 cells: the peptide with the intramolecular disulfide bond is added together with a fixed amount of 7B4; readout: binding of 7B4 to human GPRC5D on the cells
T4 construct: Rat IgG2b, kappa chain
T4 sequence (VH, as listed by the source, chain 1 of 2): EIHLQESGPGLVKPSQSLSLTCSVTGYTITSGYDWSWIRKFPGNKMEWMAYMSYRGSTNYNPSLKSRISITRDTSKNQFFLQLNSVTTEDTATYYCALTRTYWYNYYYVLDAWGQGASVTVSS
T4 sequence (VL, as listed by the source, chain 2 of 2): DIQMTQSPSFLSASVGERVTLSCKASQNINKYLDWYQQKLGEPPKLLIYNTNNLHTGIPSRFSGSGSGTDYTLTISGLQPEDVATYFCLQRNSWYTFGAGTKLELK
Protocol: as §1

[5] = target: T5, rat anti-GPRC5D antibody 2B1; assay: flow cytometry competition on KMS-34 cells: the peptide with the intramolecular disulfide bond is added together with a fixed amount of 2B1; blocked: binding of 2B1 to human GPRC5D on the cells
T5 construct: Rat IgG2b, kappa chain
Protocol: as §1

[6] = target: B2; assay: SPR (Biacore T200), kinetic analysis: biotinylated amino-terminal peptide of human GPRC5D on Sensor Chip CAP, scFv as analyte
Protocol: The binding activity of the anti-GPRC5D antibodies against the amino-terminal peptide of human GPRC5D was tested by SPR using Biacore T200. The amino-terminal peptide of biotinylated human GPRC5D diluted to 2 nM with HBS-EP+ (manufactured by GE Healthcare Bio-Sciences Corp.) was immobilized on Sensor Chip CAP (manufactured by GE Healthcare Bio-Sciences Corp.) by contact at a rate of 10 μL/min for 180 seconds. Then, Kd was calculated by kinetic analysis using a plurality of concentrations of each scFv diluted with HBS-EP+ as analytes.

[7] = target: B2; assay: ELISA, chemiluminescence: biotinylated amino-terminal peptide of human GPRC5D on NeutrAvidin, scFv detected with HRP anti-FLAG antibody
Protocol: (§2) NeutrAvidin diluted to 1 μg/mL with PBS was added in an amount of 50 μL/well to 96-well Maxi-sorp plate (Black, Nunc/Thermo Fisher Scientific Inc.), and the plate was left standing overnight at 4° C. for immobilization. After washing three times with an ELISA buffer, the amino-terminal peptide of the biotinylated human or cynomolgus monkey GPRC5D (used in Example 10)-1) diluted to 1 μg/mL with PBS was added thereto, and the plate was shaken at room temperature for 1 hour. After washing three times with an ELISA buffer, the plate was blocked with Blocker Casein and washed three times with an ELISA buffer. Then, the C2037, C3048, C3015, or C3022 scFv was added to the plate and reacted at room temperature for 2 hours. After washing three times with an ELISA buffer, a horseradish peroxidase (HRP)-labeled anti-FLAG antibody diluted 5000-fold with an ELISA buffer was added thereto in an amount of 50 μL/well and reacted at room temperature for 1 hour. After washing five times with an ELISA buffer, SuperSignal Pico ELISA Chemiluminescent substrate was added. After 10 minutes, the chemiluminescence was measured using a plate reader.

[8] = target: T2, human GPRC5D; assay: flow cytometry on KMS-34 cells (endogenous human GPRC5D), anti-FLAG antibody and Alexa 488 anti-mouse IgG detection
Protocol: The KMS-34 cells were recovered by centrifugation, washed twice with a FACS buffer (PBS containing 0.5% BSA and 2 mM EDTA, pH 7.4), and then suspended in the same solution as above. The C2037, C3048, C3015 or C3022 scFv was added to the obtained cell suspension, and the mixture was left standing at 4° C. for 2 hours. After washing twice with a FACS buffer, the cells were suspended by the addition of an anti-FLAG antibody (Sigma-Aldrich Corp.), and the mixture was further left standing at 4° C. for 1 hour. After washing twice with a FACS buffer, the cells were suspended by the addition of Alexa 488-labeled anti-mouse IgG antibody (Jackson ImmunoResearch Laboratories, Inc.), and the mixture was further left standing at 4° C. for 1 hour. After washing twice with a FACS buffer, the cells were fixed in 1% PFA (prepared from a 32% paraformaldehyde solution (Electron Microscopy Sciences)), followed by detection using a flow cytometer (FACSCanto™ II; Becton, Dickinson and Company). The data was analyzed using Flowjo (Tree Star, Inc.).

[9] = target: T6, amino-terminal peptide of cynomolgus monkey GPRC5D …(Biotin)-NH2 (cynomolgus monkey, C-terminal lysine carrying biotin, C-terminal amide); assay: ELISA, chemiluminescence: biotinylated amino-terminal peptide of cynomolgus monkey GPRC5D on NeutrAvidin, scFv detected with HRP anti-FLAG antibody
T6 construct: also called amino-terminal peptide of biotinylated cynomolgus monkey GPRC5D
T6 peptide: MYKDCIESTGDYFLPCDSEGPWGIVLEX
Protocol: as §2

[10] = target: T2, human GPRC5D; assay: flow cytometry on KHM-1B cells (human GPRC5D), PE anti-human IgG Fc, rMFI over human IgG isotype control
[11] = target: T7, mouse GPRC5D (mouse, UniProt Q9JIL6 1-344); assay: flow cytometry, in the same way as in Example 5)-2
T7 construct: whole, on cells
T7 sequence (looked up): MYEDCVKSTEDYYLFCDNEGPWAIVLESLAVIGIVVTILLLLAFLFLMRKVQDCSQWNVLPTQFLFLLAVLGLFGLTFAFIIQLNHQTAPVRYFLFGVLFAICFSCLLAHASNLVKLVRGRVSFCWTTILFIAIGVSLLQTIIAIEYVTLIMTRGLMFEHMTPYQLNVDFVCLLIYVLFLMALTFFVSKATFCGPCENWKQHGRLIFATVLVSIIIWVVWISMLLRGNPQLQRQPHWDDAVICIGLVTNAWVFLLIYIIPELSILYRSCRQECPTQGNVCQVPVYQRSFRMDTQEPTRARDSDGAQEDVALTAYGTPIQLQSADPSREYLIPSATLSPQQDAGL

[12] = target: T3, rat anti-GPRC5D antibody 2A4; assay: flow cytometry competition on KMS-34 cells: the peptide without the intramolecular disulfide bond is added together with a fixed amount of 2A4; readout: binding of 2A4 to human GPRC5D on the cells
Protocol: as §1

[13] = target: T4, rat anti-GPRC5D antibody 7B4; assay: flow cytometry competition on KMS-34 cells: the peptide without the intramolecular disulfide bond is added together with a fixed amount of 7B4; readout: binding of 7B4 to human GPRC5D on the cells
Protocol: as §1

[14] = target: T5, rat anti-GPRC5D antibody 2B1; assay: flow cytometry competition on KMS-34 cells: the peptide without the intramolecular disulfide bond is added together with a fixed amount of 2B1; blocked: binding of 2B1 to human GPRC5D on the cells
Protocol: as §1

B1: humanized anti-GPRC5D antibody h2B1_H1/L2 (antibody, human IgG1, kappa, V domains shown)
VH: QVQLVESGGGLVKPSQTLSLTCTFSGFSLNTYDMGVGWIRQPPGKGLEWIGNIWWDDDKYYNPSLKSRVTISVDTSKNQASLKLSSVTAADTAVYYCARIETVRVSRKGFAHWGQGTLVTVSS
VL: DTVMTQSPDSLAVSLGERATINCKASQSVGINVDWYQQKPGQPPKLLIYGASNRHTGVPDRFSGSGFGTDFTLTISSLQAEDVAVYYCLQHGSIPPTFGQGTKVEIKR
notes: Human IgG1 / kappa
EC50 (read off the curve) [1]: ~4 nM | binding result [2]: binds

B2
binding result [3]: no binding (tested: 5000 nM) | binding result [4]: no binding (tested: 5000 nM) | IC50 (read off the curve) [5]: ~50 nM

B3: human antibody C3048 scFv (scFv)
scFv: QVQLVQSGAEVKKPGSSVKVSCKASGGTFSRYAISWVRQAPGQGLEWMGGIIPIFGTANYAQKFQGRVTITADQSTRTAYMDLGRLRSEDTAVYYCALEGFRDSLKRNPFDIWGQGTMVTVSSGGGGSGGGGSGGGGSQSVVTQPPSVSAAPGQKVTISCSGGTTNIGSNYVSWYQQLPGTAPKFLMYENNKRPSGIPDRFSGSKSGTSATLAITGLQTGDEATYYCSTWDSSLNTGLFGGGTKLTVL
notes: also called C3048 antibody scFv; not shown: FLAG and His tags at the carboxyl terminus
Kd [6]: 0.36 nM | EC50 (read off the curve) [7]: ~3 nM | EC50 (read off the curve) [8]: ~10 nM | binding result [9]: binds

B4: human chimeric 2B1 (antibody, human IgG1, V domains shown)
VH: QVTLKESGPGILQPSQTLSLTCTFSGFSLNTYDMGVGWIRQPSGKGLEWLANIWWDDDKYYNPSLRNRLTISKDTSNNQAFLKITNVDTADTATYYCARIETVRVSRKGFAHWGQGTLVTVSS
VL: ETVMTQSPTSMSTSIGERVTLNCKASQSVGINVDWYQQTPGQSPKLLIYGASNRHTGVPDRFTGSGFGRDFTLTISNVEAEDLAVYYCLQHGSIPPTFGGGTKLELKR
notes: Human IgG1 / kappa constant regions
EC50 (read off the curve) [10]: ~10 nM | binding result [11]: no binding

B5: human GPRC5D amino-terminal peptide …(Biotin)-NH2, lacking an intramolecular disulfide bond (peptide)
peptide: MYKDCIESTGDYFLLCDAEGPWGIILE(Biotin)-NH2
modifications: cysteine pairing not given here
notes: Sigma-Aldrich synthetic peptide; also called amino-terminal peptide of human GPRC5D (disulfide bond absent)
binding result [12]: no binding (tested: 5000 nM) | binding result [13]: no binding (tested: 5000 nM) | IC50 (read off the curve) [14]: ~50 nM
